Residue numbers refer to the chain shown, from its start. Each block holds one binder with its values, some of them ahead of it.
How the values were obtained:
[1] = molecular target: T1, human IL-12Rβ1-his (Acro Biosystems), biotinylated (human, UniProt P42701 24-545, biotinylated); experiment: ELISA, periplasmic extract
T1 construct: bought; captured on Neutravidin in the ELISA; also called Bio-huIL-12Rβ1-His

[2] = molecular target: T2, human IL-12RB1 with C-terminal FLAG tag, transiently expressed on HEK-293T cells (human, UniProt P42701 24-662); experiment: FACS, periplasmic extract, HEK-293T
T2 construct: whole, on cells

[3] = molecular target: T3, cyno IL-12RB1 with C-terminal FLAG tag, transiently expressed on HEK-293T cells (cyno, UniProt A0A2K5VWV1 24-662); experiment: FACS, periplasmic extract, HEK-293T
T3 construct: whole, on cells

[4] = molecular target: human IL-12 receptor (IL-12Rβ1 and IL-12Rβ2) on HEK-Blue IL-12 cells (human, UniProt P42701 24-662; Q99665 24-862); experiment: cell-based or functional assay
Chain of human IL-12 receptor (IL-12Rβ1 and IL-12Rβ2) on HEK-Blue IL-12 cells (Q99665 24-862, chain 2 of 2, other chains not shown): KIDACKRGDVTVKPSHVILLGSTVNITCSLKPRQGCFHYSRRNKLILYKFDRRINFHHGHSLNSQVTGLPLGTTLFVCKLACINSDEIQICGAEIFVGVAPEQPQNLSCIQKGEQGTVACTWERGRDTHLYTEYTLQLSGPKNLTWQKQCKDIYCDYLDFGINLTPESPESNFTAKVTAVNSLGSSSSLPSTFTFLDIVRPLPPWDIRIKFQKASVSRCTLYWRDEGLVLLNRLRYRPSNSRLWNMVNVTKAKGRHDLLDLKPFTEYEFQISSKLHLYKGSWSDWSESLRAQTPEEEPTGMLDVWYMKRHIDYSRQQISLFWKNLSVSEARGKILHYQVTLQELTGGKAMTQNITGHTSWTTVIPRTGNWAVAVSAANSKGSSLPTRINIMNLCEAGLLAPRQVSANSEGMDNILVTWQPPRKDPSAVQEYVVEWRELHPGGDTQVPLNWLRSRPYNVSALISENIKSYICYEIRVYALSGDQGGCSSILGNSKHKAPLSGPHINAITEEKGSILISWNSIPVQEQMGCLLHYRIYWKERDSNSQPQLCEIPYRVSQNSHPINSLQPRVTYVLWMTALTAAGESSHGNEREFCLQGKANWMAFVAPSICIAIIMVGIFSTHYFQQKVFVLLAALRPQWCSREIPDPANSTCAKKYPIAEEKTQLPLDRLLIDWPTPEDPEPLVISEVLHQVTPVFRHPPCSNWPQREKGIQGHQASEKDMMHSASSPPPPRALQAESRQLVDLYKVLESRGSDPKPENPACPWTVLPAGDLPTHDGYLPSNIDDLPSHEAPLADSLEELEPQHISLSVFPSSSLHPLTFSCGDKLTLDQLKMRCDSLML

B2: DGL541 (bispecific antibody, V domains shown)
V domain 1: QVQLVESGGGLVQAGGSLRLSCAASGRTFRTYAMGWFRQAPGKDREVVGIAAWKVASTYYVDYGDSVRGRFTISRDDAKSTVYLQMNNLMPEDTAVYYCAAGAFRTDWRSYAYWGQGTQVTVEP
V domain 2: QVQLVESGGGLVQAGGSLRLSCAASGRTFSSYAMGWFRQAPGKEREFVSAISWSGLSTYYVESVQGRFTISRDNAKNTVYLQMNSLKPEDTAVYYCAASRIYTNYVARSYEYDDWGQGTQVTVEP
Max Absorbance [4]: 0.37

B4: DGL579 (bispecific antibody, V domains shown)
V domain 1: QVQLVESGGGLVQAGGSLRLSCAASRSISSFNEMAWYRQAPGEQRELVATIVSTVGFTNYADSVKGRFTISRDNAKNTVYLQMNSLKAEDTAVYYCNARRISTDYWGQGTQVTVEP
V domain 2: B2 V domain 2
Max Absorbance [4]: 0.36

B9: VHH41B1 (VHH)
VHH: EVQLVESGGGLVQAGGSLRVACAASGRTFSTYAMAWFRQAPGKEREFVAHILWSGGSTVYPDSVRGRFTISRDNAKNTVYLQMNSLKPEDTAVYYCAQKSGRQVYRIDSWDSFDYWGQGTSVTVSS
OD450 nm [1]: 0.413 | FOB [2]: 48 fold | FOB [3]: 19 fold

B13: VHH50B1 (VHH)
VHH: QVQLVESGGGLVQAGGSLRLSCAASGRAFSRYSMGWFRQAPGKEREFVAANYWSNGWTDYADTVKGRFSISRDNAKNTVYLQMNSLKPEDTAVYYCAGRSSSIPSADVVGYDYWGQGTQVTVSS
OD450 nm [1]: 0.151 | FOB [2]: 132 fold | FOB [3]: 106 fold

B14: VHH25B1 (VHH)
VHH: QVQLQESGGALVQPGGSLRLSCVVSGFTSDYFAIGWFRQAPGKEREGVSCIGSSDGSTIYSDSVKGRFTISRDNAKNTVYLQMNSLKPEDTGVYYCALDRGRRTIIGYACYATMKYWGKGTPVTVSS
OD450 nm [1]: 0.479 | FOB [2]: 160 fold | FOB [3]: 121 fold

B15: VHH136B1 (VHH)
VHH: QVQLQESGGGLVQAGGSLRLSCAAPGRYAVGWFRQAPGKEYEFVAAITVSGGSKYYEDSVKGRFTISRDNAKNTVYLEMNSLKAEDTAVYYCAARTPKFGSGWYNRRGEYDYWGQGTQVTVSS
OD450 nm [1]: 2.84 | FOB [2]: 80 fold | FOB [3]: 88 fold

B17: VHH58B1 (VHH)
VHH: B15 VHH with Q5V, T65A, E78Q
OD450 nm [1]: 3.03 | FOB [2]: 82 fold | FOB [3]: 88 fold

B19: DGL585 (bispecific antibody, V domains shown)
V domain 1: QVQLVESGGGLVQAGGSLRLSCAASGRTFSSYVMGWFRQAPGQEREFVAAIMRNGIMTYYADSVKGRFTISRDNAKNTVYLQMNTLKPDDTAVYYCAAASRVGVSISQSSSYTSWGQGTQVTVEP
V domain 2: QVQLVESGGGLVRPGGSLRLSCAASGFTFSSNGMHWFRQAPGKGLEWVSSIGSGGTSIYYADSVKGRFTISRDNAKNTLYLQMNSLKSDDTAVYYCSKEVTGATRGQGTQVTVEP
EC50 [4]: 3.2e-09 M (implied) | Max Absorbance [4]: 0.37

B20: VHH54B1 (VHH)
VHH: QVQLVESGGGLVQAGGSLRLSCAASGGPFSGYVMGWFRQVSGKEREFVAGITGISSTYFADSVKGRFTISRDNAKNMVYLQMNSLKPEDTAVYYCAAVNSFGVIPTSPNGMDYWGKGTLVTVSS
OD450 nm [1]: 0.822 | FOB [2]: 43 fold | FOB [3]: 19 fold

B21: VHH32B1 (VHH)
VHH: EVQLVESGGGLVQPGGSLRLSCAASGFTFQNYAMSWLRKAPGEGLEWVSVINSGGGSTLYADSVKGRFTISRDNAKNTLYLQMHSLKSEDTAVYFCAKRRDDSTFGSLLYTHRGQGTQVTVSS
OD450 nm [1]: 1.28 | FOB [2]: 78 fold | FOB [3]: 129 fold

B22: DGL503 (bispecific antibody, V domains shown)
V domain 1: EVQLVESGGGLVQAGGSLRLSCAASGLTFRNYAMAWFRQAPGKEREFVAGITWGGGLTHYVDSVKGRFTISRDNGKNTVYLQMNSLKSEDTAVYYCAGKTQGSTWYHLTPDGYDYWGQGTQVTVEP
V domain 2: QVQLVESGGGLVQAGGSLRLSCAASGRIFSAYRMGWFRQAPGKEREFVAGITWRGQTTYYAASVKGRFTISKDNAKKTVYLQMNSLKPEETAVYYCAVETNGLGRWDRPSEYDYWGQGTQVTVEP
Max Absorbance [4]: 0.35

Now from value to binder:

OD450 nm [1]: 2.73 | FOB [2]: 260 fold | FOB [3]: 184 fold
B1: VHH108B1 (VHH)
VHH: EVQLVESGGGLVQPGGSLTLSCTASGFRFSDRSMGWYRQAPGKQRELVAAITVGGSTNYADSVKGRFTISRDNAKNTVYLQMNSLKPEDTALYYCNRRYPPDDYWGQGTQVTVSS

OD450 nm [1]: 3.31 | FOB [2]: 116 fold | FOB [3]: 152 fold
B3: VHH137B1 (VHH)
VHH: B2 V domain 1 with E123S, P124S

OD450 nm [1]: 2.85 | FOB [2]: 24 fold | FOB [3]: 21 fold
B5: VHH154B1 (VHH)
VHH: QVQLQESGGGLVQVGDSLRLSCVASGRIFGVNTRAWYRQAPGNQRELVAQISSGGNINYADSVKGRFTISMDKFTDTVYLQMNSLKPEDTAIYRCAAHRQHPYADVWGQGTQVSVSS

OD450 nm [1]: 2.93 | FOB [2]: 78 fold | FOB [3]: 58 fold
B6: VHH195B1 (VHH)
VHH: QVQLVESGGGLVQAGGSLRLSCAASGRTFGTYAMGWFRQAPGKERDFVARISNSGAFTHYADSVKGRFTISRDNAKNTVYLHMNSLENGDTAAYYCVATRGTNSAYYTRSTMYEYWGQGTQVTVSS

OD450 nm [1]: 0.349 | FOB [2]: 146 fold | FOB [3]: 81 fold
B7: VHH233B1 (VHH)
VHH: B4 V domain 1 with E115S, P116S

OD450 nm [1]: 0.422 | FOB [2]: 104 fold | FOB [3]: 64 fold
B8: VHH86B1 (VHH)
VHH: QVQLVESGGGLMQAGGSLRLSCALSRGIFSAYAMGWFRQVQGKEREFVSGISRSGSTTDYVDTAKGRFTISRDNARDTVYLQMNSLKPEDTAVYYCAAVTGTFPSSTYHNANAYHHWGQGTQVTVSS

OD450 nm [1]: 2.97 | FOB [2]: 152 fold | FOB [3]: 161 fold
B10: VHH104B1 (VHH)
VHH: EVQLVESGGGLVQPGGSLRLFCAASRSIFNINIMGWYRQAPGKQREWLASITSGGSTFYADSVKDRFTISRDSVKNTVYLQMNSLKPEDTAAYYCNRYRSVPLNTVYPWGQGTLVTVSS

OD450 nm [1]: 0.409 | FOB [2]: 133 fold | FOB [3]: 99 fold
B11: VHH97B1 (VHH)
VHH: QVQLVESGGGLAQAGGSLRLSCAASGRTFSNDDMAWFRQAPGKEREFVAHIDRNAASTNYADSVKGRFTISRDNAKNTVYLQMTRLKPEDTAVYYCAADPDHFGTTWYQQYTYWGPGTQVTVSS

OD450 nm [1]: 1.9 | FOB [2]: 101 fold | FOB [3]: 62 fold
B12: VHH115B1 (VHH)
VHH: QVQLVESGGGLVQAGGSLRLSCLASGRTSNYFMGWFRQAPGKEREFVAAISRSGGGTWYADSVKGRFAISRDNAKNTVNLQMNSLKREDTAVYYCAADRRTGTSVYTVDEYDYWGQGTQVTVSS

OD450 nm [1]: 3.14 | FOB [2]: 75.1 fold | FOB [3]: 50 fold
B16: VHH172B1 (VHH)
VHH: B15 VHH with Q5V, T120A

OD450 nm [1]: 0.125 | FOB [2]: 86 fold | FOB [3]: 42 fold
B18: VHH187B1 (VHH)
VHH: EVQLVESGGGLVQPGGSLRLSCAASGFTLDYYAIGWFRQAPGKEREGVSCISSSDRSTWYADSVKGRFTISRDNAKNTVYLQMHSLKPEDTAVYYCATPCYSDYDPEGYEYDYWGQGTQVTVSS

OD450 nm [1]: 1.98 | FOB [2]: 117 fold | FOB [3]: 120 fold
B23: VHH72B1 (VHH)
VHH: B22 V domain 1 with E125S, P126S

OD450 nm [1]: 1.19 | FOB [2]: 80 fold | FOB [3]: 68 fold
B24: VHH174B1 (VHH)
VHH: QVQLVESGGGAVQAGGSLRLSCAASGLTSRHYVMAWFRQAPGIEREFVASIWWGGSTYYADSVKDRFTISRDNAENTVYLQMNSLKPEDTAVYRCAVGTKIGTMGPRYDYWGQGTQVTVSS

OD450 nm [1]: 2.93 | FOB [2]: 88 fold | FOB [3]: 82 fold
B25: VHH67B1 (VHH)
VHH: QVQLVESGGGLVQAGGSLRLSCAASARIFNSYAVAWFRQTPGKEREFVASISWSGGSTNYADSVKGRFTISRDNAKNTVFLQMNSLKPADTAVYYCAADRNYYPSVLGKYTYWGQGTQVTVSS

OD450 nm [1]: 3.33 | FOB [2]: 50 fold | FOB [3]: 44 fold
B26: VHH238B1 (VHH)
VHH: QLQLVESGGGLVQPGGSLRLSCAASGFTFSSYGMSWVRQAPGKGLEWVSYISAGGGTTTYVDFVKGRFTISRDNAKNMLYLQMNSLKPEDTAVYYCVHAADGSRGQGTQVTVSS

Source: patent US20250019450A1 (DIAGONAL THERAPEUTICS, published 2025)
